The supplement of paper PMC12636428

Test system: Saccharomyces cerevisiae
Test: transcriptional activation domain activity (GFP:mCherry ratio, weighted mean of sorted bins, harmonized to initial dataset scale) (arbitrary fluorescence ratio units); higher = stronger transcriptional activation
Details: beta-estradiol 1 µM; induction time 4 h
Method in brief: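 Values are activation activity, found as the read-weighted mean of bin median fluorescence, averaged across barcodes and then mapped linearly onto the initial dataset scale. Barcoded protein tiles fused to an estradiol-inducible synthetic transcription factor were integrated at the URA3 locus of GFP-reporter yeast diploids. Cells were induced for 4 hours at 30 °C with 1 uM beta-estradiol in SC, sorted into 8 bins by GFP:mCherry ratio, and barcode-sequenced, with tiles under 50 reads discarded.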

Row | Sequence | transcriptional activation domain activity
1 | ILMLFLGCLVICDLAFNIIVTILAFTTGFTHLLLSLVPTIPPPNCFLVHWQNH | 54600
2 | IYTNRFVSGDDGSNSKTKNLDSNMFSNDFNFENQFDEQVSEFCSKMNQVCGTR | 74400
3 | ICHYKGSLIGKHFKSLSQVMPFIIYDLVPSTVLNAWTIMGKLIVLIWHTKILN | 38600
4 | RLEASKKRKARVEVDIVLERDCVVEGGEVRGRMEVRVHGSKRSEGLRVGAGKI | 44400
5 | SDASEGSKGRAREDPSDRAVVEYQGLSRFSSIPEKEKVWAYVVKIVKLLATTK | 34600
6 | MYFAYFYLLPEMSSLSFFPFLSVYVFFIFFSSLICFFFFLSMGFLCLFTFLLV | 45200
7 | MTSPPLIKEEQTSSDESQIQQQSKTRRPKTRASVACTSCRDRRIRCVVPSGKK | 55700
8 | YPKALPFYGKILGYMTSIYDTIARLAFLKTLQPQGPLDYMLWLVIMTATRIFY | 53800
9 | EQKVPEGVKDSWDASSDEEEEETAVKPSKPAAAANGKSPSAPAKAATHAKPAP | 23500
10 | RDRGGERDSKPRKTSGSSSNSQHADRGDTRSQKSSRRRRSSRSEHGGETSQHH | < 6570
11 | YKEWDELVKYFFRQVTKRVQERPELVVEMLFSKIPATIFFLDHGYDRELPSRA | 46400
12 | ANGDDSAAPKPEGQEDKPVESNGASASAAAPSEPQQQEGQPKAEPAEPAPATV | 26400
13 | FYLSPVMPLFPPLLKLLREYLSDPLYKDFVSAIYLWVRSVELHHMSTLCIALL | 68900
14 | IFGSSFFLLCLFNLFFFLFFLSFLSLLFSFFLFFLFFFLFDVFTTVILSSTYG | 51800
15 | MTLVVMMILPPLASLDCFLLSFFFSLLLSPTFPLVLFFSVYKFFHFSTFPFFV | 54800
16 | GGAAPAAAPADNRPPEERYAEQLRQLNDMGFFDFDRNVAALRRSGGSVQGAIE | 44000
17 | EFILHTMPVVAIKDTHAWNGNTPVELGLLGFWNLIVVWLKLLIPWRFFRLWAL | 63800
18 | LLFTLLWLLFFFFFFLFLLFFFVVLVFVFFVVYFFILLLLFIVVDDEWVLLGL | 45300
19 | LYFLLLLSPLCIGLVSVLCCHIGFIFLFLFFLLQSYQVSYLLLFMYIRFFLCM | 42300
20 | GNAREMRASSARAAGFRRRGRQASNTRAAGNEREGGEQRARGRGASSARAGGI | 43400
21 | NPQLFLLGGCLTLVHLLFSSLWLWLVSILFAHDREYPSFVLLSYFMIFYFWTS | 54000

Row | Sequence | transcriptional activation domain activity
22 | MDSLFFFFFLLFFFSSCFGFGCSVGLFLFFSVVCNLYFCLLRSYMYLLALLFT | 51500
23 | EKKRKRTEEEDAPKLKKKKTKSDLKRDSGGSSQEDSEAPAKKKKSSKSKKAKK | 35800
24 | LLLFIHSLIHGTMLLFWRWPMLSILQVPMHPFLLLVCFNLFSQSVPPVLVSAA | 59500
25 | RLGQCVKRYFDSKQVTHLVNAGKYGTGVVSYLFYFMWSYREESRGANFALWCF | 79300
26 | EQAPREGQGQGRGRGGRPRGEGRGRGGRGRGRGAPAGNGAAEAAATTAPKSTE | 21700
27 | GKEVVDIQEAEVEEGGVKREKVRVVFKDGTDAVGDLVVGCDGARSRARECIVG | 45700
28 | PKKEEPKRRSASRKRGSIFGGSLFGKKEEAKKEEEKPVEAAAETKAAETEAPA | 30700
29 | FSMRFVVLIDLFATFLQPASIIYVLYLIYVAAFDKATAFPMISLIMLACIYGL | 17000
30 | GKKSSGKKSGSSKKTKKDKKAEKDKTAADEKEKEEVKEKETGAEGEKTPEHSE | 37700
31 | ELVVLRFWSLKAIVFFFVLVLQTVSLGAGKGGGLYKDLFTLFLHILCILELCC | 61300
32 | LAQAFFASMPVVCFLTFGLFVLFALVAGFLFFTLFWVGLAFCVLVPVLVVTFC | 49000
33 | ESNVEAGKAEAEKAVEEAAGAEGEGGEEKAVEEEVAEGAEGEAAEGEAAEGEA | 32600
34 | MWCTRWFLPLLLLPLPTAPPFFLALFLISLTLHSKPCFYCILLLTTLFLTSCY | 45300
35 | KGHVKTGILSANDGVPPTPNLLDYDWNNLNITGYEWISSELRDDALLSAVTLQ | 131000
36 | DAPPQKGDRKAEVQDGENGDEVGQDPKGKDKGGRGRGRGGRGRGGAARGGATA | 36600
37 | SPSRNAERPSPAAPAAMERGPDGRPRLKLAPRSAPRTETPSPAPVAPPAPVHV | 29400
38 | MSEPPRKRAKLACVTCNARRVKCDVTDRQPCTNCITGNVHCETRESKRGKHPR | 20300
39 | MADATATGSTPPQAPLPEPKRHAACDECRLRKLKCSGTRPACERCAREHIACV | 40100
40 | LNYRKDIDAWHKSLMGTLARGPTLWTFWILSCLDKECFWNWQCYLGYMWPGLF | 72100
41 | GSNIQWLVTKWREMGCRKGPIELTKFLTGLLCVNPFSLTPEKGARLLIKLLSI | 62200
42 | MIPSYLSHGRAAIIAIRLVLALYFFWHPLVLFLSSLKLITPCICLHLLFAFWI | 62500

Row | Sequence | transcriptional activation domain activity
43 | LSRAGTGGRAGTAKEAGEAAGGGEQQGEEAGGKEEAGAGAEGEAENGTGGKRN | 23400
44 | IRYWLLTFFVMDFLPNRELRLLLASWLNTLVNDPILKKHQDGLSIVRKLIKVA | 51600
45 | ELKKFADGVDRERKERAKSANGCCGFCGREEEALPKCGRCKETRYCSPSVRAC | 33000
46 | CSNIAEQADQCDFVKSYCDGFSGYYLMLYYCSPFWRPISIFILLSCLLMLFGA | 30700
47 | MVIWRDTLLITLHGLCGGILLRFPSAVNLFHCFIDINSPIGITILTLFVLHLC | 70200
48 | FFHVTIRVASQSCGIAFGILGFSNFPVFLAYLILGAEGYFSLVLCAFRFLISW | 75000
49 | IFHLPLECPFPLTNRRNACALIENFLDAVKYHRHLFPYWRRRAIKYFIWREWF | 32300
50 | YPVGKQVLARYPETTTFYRAEVMGTKRDGTCRLKFEGEEEVGKETEVERRLVL | 77100
51 | QLNLVNHFYQFSLRFFLDIFDYILHHNPNLKGVTDYSRRRAILLNDLFLVVYQ | 55500
52 | WETIGTILYLFYVFTFLRLRFFLLLFYLYELTTMISLTIYIILYTLLFYFSCY | 41200
53 | MQFSLLFFFCLLFPPLLLFLCSFFFSFLFLEIFGFVNCLGFRRSHFQRQALLV | 54500
54 | MRLSRCCVFILLFFFDLVYYYPFLLLFNGFGGICIFLVLKRSHRETEFICFMQ | 60600
55 | GIPDELAWMLCLDGLDCIDGETYNLPLLRQFMELFPSLPLTSLLTAYFLYMDI | 119000
56 | MAMTPVRGEGNDGYRTSDGEMESGGTRAQGKVIQRSRWVASSHIVAPAEVEKP | 27500
57 | QLTAQQLIENAIESGVVDLETLDLPPFLSLDGLPPASSSAAVAASEQIDICPS | 133000
58 | WAPLNVGLERRLQTFVVLCHTLTIPIFLTLFFFLCAIPLFWPLLIPYLIYILL | 34700
59 | MAKLRELMKKLEEEVVGEDGEKRMVQPTIMQEPFRSFFRTAVSVYLPNVLGAK | 52600
60 | NGPQGQQQQGQRAGQRGQGAGAGEAGQQNGQQGQQAGQRGRGTQAGAAGQQNG | 20600
61 | DDEDEEQEEEEEDVDPEVRRKEELRARMAKMSGGMGMAGMFGMMPMPGAGAPP | 41500
62 | HKRKRTGQEEVAKKPKESRRDKKTRRKRTEPDEEIASADTKERRRKSAGAEKS | 20800
63 | MFSFYMPTPPPFFPFPLVLFFFFFAVHRFHKISTFSTPFFFWIHFIVVLLFSF | 58600

Row | Sequence | transcriptional activation domain activity
64 | MFLYSHPPLHPNVFLPPPSLFICTMLQLVFYRPSSVYLLLLLFWIYPPLFLLC | 56400
65 | DDLLVCVAQVVDICYSVFFWFPGIQFQPRPPPLPPIINLWASNILMYTILWIS | 60700
66 | GSELEVKKPSKKRAPKKAAKKEEYEGSEMDEKPAPKRRAPARSTKKAAKKEEA | 15800
67 | GRGKESLLVLSGCSLIQIPVPVWGYHIAFVVCQKYYGSHLGIVHLILPFAFTI | 47800
68 | QDALVELFGHMENFFRRLEKHIEVRPTTAMTDIIVKIMVEVLSILGIVTKEIE | 41200
69 | TLHFFQPIAKWFGIKKSSKLIRFGEQGHAMAYFAVTSCWGLRVMRQLPTWWYR | 41500
70 | IVKGTDAQQLAQIVVANLFCAILMRQDYVINAFFNFFCSVPTSWPLAIRRVCA | 53100
71 | MPFFSDFLFLFLFFFLEFFFFFFLPGFRLGYSSLFSSLLFFFFGFPIPPPHLS | 46200
72 | VASVLVFICHYTECNWGDLTHFYGVNKEHPGSFIQMPYIRLIYSGRPMVHIFF | 29900
73 | APQPVEATAIDDGFQEAKRGRGRKKAKEEVVASAPAAPADAPQVAKAKVVASA | 23300
74 | RKNTSSEEDELEESRNNRNKNHRSRQDGNKEDRSSRSRQSHRQKRERSGSEER | 14100
75 | NTLDVSEGNQVINESASTNTSSALNCQSYTNNQDIMDILFQVTSGSVWDEFFV | 149000
76 | IQEDNEEGERRRRRRKGKAGEETEGEKKEKKRKKNGATKSGKRGKMERNGKLK | 28400
77 | LMGLDELHLRVLSSSSDDPQERLNADKVLKLLTKRRHWVLVVLLLGNVIVNES | 35800
78 | RNGKRTRNARKLRKPRRSRRRGEEKKKPNASALKRQRRREKKQEEELRRKQKR | 47800
79 | MISPIFPRNLIIHNITFSMLFSFFSFLFYTLYALFNFPVPFFLSSILTPLNIF | 71200
80 | MSRCNSSMFMSMFDSLGLFLFVIFIFLFFELHSFWWDLFSLFFVFVWFNFSIS | 41400
81 | MLLSIWCHHFTFLFFFFFFFDHRFFCFFYSHLFYAVSYSFLLLLLLLYELLLV | 47100
82 | KDPWHIKALVAFVWILDVAHTILISCFVYTLTIVYYGRAQELLKFICLYILIL | 45100
83 | EKRYGPMLDPKNPLHYMWQLVYNILSLKLHIMLLFRYASNMHRIMPERLRQTV | 58300
